According to IntAct's records for PubMed 21946560:

B1: DNA replication regulator DPB11 (Saccharomyces cerevisiae), P47027 (parent)
chain: MKPFQGITFCPTAINNEILAKKISKKIIKLGGIFSKDLTRQVNVLVVGSTTNTNKFKFAVKHRFDIIFIDIQAIDDIYQLWLSGENILPDSNTATMTGSTYEMLKILYRRFSFKYLHNFNIFIGRITDTNITSIDSLVRSIKKLGCSSYNYQNFVIKDTSSHNDDDDQGQNGQISIFVTDTLLGARVNAAIEQNIPIVHFKWILDCQKRSALLPYDPYYLLPNIKDLPYDSIGSNSCDCWDKINTTFPTNIDAQSSLQRQQSSSTLTPSLPKTSSLLNKFKPKGEKIWDKAMSLQQHSKTNFSVLGQSPLSINNKQEDLSDNSTLIFKNCAFIIHHIFPGNHRSILTKIVVQNGGKIETSYLSGIYDHSYYIIPSNKALDSFNDLPEIIDDNDGIVTEFFIERCLYYQKLLHPIDLWSKPFLSTIEFQVSSSSKLLHHEFSSSPFLNVTITGFSGVELLHLTKVLNLLKPMGINYVEYLNKSTDILLINLAALPSIPKTHPLWSNEFSDLFTQFCINNNNDDPGDNNRKDFQNNSILRNSMKRKIEYIKKFHSIPVVTPAFIFKLLSAASGENNEIFLNNIKWCIICPRGHKDDFKCKIKKPYYTSISSEKKYQNNDPKIDKTILLKRNNSSLSEHSMKDTKNELLQKIRETDSGRKKRSVSSSIMDVSSERQMPDTKRIKLESLPKNFVPKQIKRTTSWGTIMSENVPTEQPTAISNPEEIPRTEEVSHTQVTYGSIQDKKRTASLEKPMRRQTRNQTKELDS
partner: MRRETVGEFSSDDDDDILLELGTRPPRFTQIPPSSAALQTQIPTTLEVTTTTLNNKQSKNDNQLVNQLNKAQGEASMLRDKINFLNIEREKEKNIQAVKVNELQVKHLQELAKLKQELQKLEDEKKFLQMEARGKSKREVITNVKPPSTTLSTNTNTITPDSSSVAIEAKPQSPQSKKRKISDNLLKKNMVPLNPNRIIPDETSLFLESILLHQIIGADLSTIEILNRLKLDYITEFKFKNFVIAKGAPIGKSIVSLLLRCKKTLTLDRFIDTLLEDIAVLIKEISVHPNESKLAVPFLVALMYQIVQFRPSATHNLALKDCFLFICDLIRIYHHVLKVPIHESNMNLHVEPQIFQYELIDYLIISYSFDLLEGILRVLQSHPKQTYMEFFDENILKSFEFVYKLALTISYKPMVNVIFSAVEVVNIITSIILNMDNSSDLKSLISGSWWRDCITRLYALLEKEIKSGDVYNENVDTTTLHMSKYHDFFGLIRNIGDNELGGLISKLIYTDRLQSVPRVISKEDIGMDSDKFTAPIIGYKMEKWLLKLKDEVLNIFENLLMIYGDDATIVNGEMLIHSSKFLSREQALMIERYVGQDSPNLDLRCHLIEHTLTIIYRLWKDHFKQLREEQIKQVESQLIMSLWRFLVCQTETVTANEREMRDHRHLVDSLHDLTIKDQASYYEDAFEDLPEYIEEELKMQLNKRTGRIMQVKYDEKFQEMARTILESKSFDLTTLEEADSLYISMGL
B2: DNA repair protein RAD9 (Saccharomyces cerevisiae), P14737 (parent)
chain: MSGQLVQWKSSPDRVTQSAIKEALHSPLADGDMNEMNVPVDPLENKVNSTNIIEGSPKANPNPVKFMNTSEIFQKSLGLLDESPRHDDELNIEVGDNDRPNANILHNERTPDLDRIANFFKSNRTPGKENLLTKYQSSDLEDTPLMLRKKMTFQTPTDPLEQKTFKKLKSDTGFCYYGEQNDGEENASLEVTEADATFVQMAERSADNYDCALEGIVTPKRYKDELSKSGGMQDERVQKTQIMISAESPNSISSYDKNKITGNGRTTRNVNKVFNNNEDNIGAIEEKNPVKKKSENYSSDDLRERNNQIIQSNESEEINELEKNLNVSGRENDVNNLDIDINSAVSGTPSRNNAEEEMYSSESVNNREPSKKWIFRYSKDKTENNSNRSTQIVNNPRTQEMPLDSISIDTQPLSKSFNTETNNELETQIIVSSLSQGISAQKGPVFHSTGQTEEIKTQIINSPEQNALNATFETPVTLSRINFEPILEVPETSSPSKNTMSKPSNSSPIPKEKDTFNIHEREVETNNVFSNDIQNSSNAATRDDIIIAGSSDFNEQKEITDRIYLQLSGKQISDSGSDETERMSPNELDTKKESTIMSEVELTQELPEVEEQQDLQTSPKKLVVEEETLMEIKKSKGNSLQLHDDNKECNSDKQDGTESLDVALIEHESKGQSSELQKNLMQLFPSESQEIIQNRRTIKRRQKDTIEIGEEEENRSTKTSPTKHLKRNSDLDAASIKREPSCSITIQTGETGSGKDSKEQSYVFPEGIRTADNSFLSKDDIIFGNAVWCQYTWNYKFYPGILLEVDTNQDGCWIYFETGRSLTKDEDIYYLDIRIGDAVTFDGNEYVVVGLECRSHDLNIIRCIRGYDTVHLKKKNASGLLGKRTLIKALSSISLDLSEWAKRAKIILEDNEKNKGDAYRYLRHPIRGRKSMTNVLSPKKHTDDEKDINTHTEVYNNEIESSSEKKEIVKKDSRDALAEHAGAPSLLFSSGEIRTGNVFDKCIFVLTSLFENREELRQTIESQGGTVIESGFSTLFNFTHPLAKSLVNKGNTDNIRELALKLAWKPHSLFADCRFACLITKRHLRSLKYLETLALGWPTLHWKFISACIEKKRIVPHLIYQYLLPSGESFRLSLDSPSKGGIIKSNNIFSFYTQFLRGSNLRDQICGVKKMLNDYIVIVWGRSELDSFVKFAFACLSAGRMLTIDLPNIDVDDTEPLLNALDSLVPRIGSELSNRKLKFLIYANENNGKSQMKLLERLRSQISLKFKKFNYIFHTESKEWLIQTIINEDTGFHDDITDNDIYNTISEVR
partner: B1 chain

Variants of: B1
Conditions: with lcd1_yeast LCD1, Q04377

| Variant | effect of a mutation on the interaction |
| --- | --- |
| Y735A | decreasing interaction |
| G736A | decreasing interaction |

Variants of: B1
Conditions: with lcd1_yeast LCD1, Q04377
Remark: another data set of the same source

| Variant | effect of a mutation on the interaction |
| --- | --- |
| G701A | disrupting interaction |
| W700A | disrupting interaction |

Variants of: B1
Conditions: with lcd1_yeast LCD1, Q04377
Remark: another data set of the same source

| Variant | effect of a mutation on the interaction |
| --- | --- |
| G701A | decreasing interaction |

Variants of: B2
Conditions: with dpb11_yeast DPB11, P47027

| Variant | effect of a mutation on the interaction |
| --- | --- |
| S462A | disrupting interaction |
| T474A | disrupting interaction |

Variants of: B2
Conditions: with dpb11_yeast DPB11, P47027
Remark: another data set of the same source

| Variant | effect of a mutation on the interaction |
| --- | --- |
| T474A | decreasing interaction |
